Measurements: paper PMC13615978

How the values were obtained:
[1] = biological target: Sla2 IDR-CC-mScarlet (IDR, coiled-coil and REND regions) (S. cerevisiae) (UniProt P33338)
[2] = biological target: Sla2 IDR-CC-mScarlet (IDR, coiled-coil and REND regions) (S. cerevisiae) (UniProt P33338); remark: listed apart in the source

Sequence of UniProt P33338 (P33338 261-746): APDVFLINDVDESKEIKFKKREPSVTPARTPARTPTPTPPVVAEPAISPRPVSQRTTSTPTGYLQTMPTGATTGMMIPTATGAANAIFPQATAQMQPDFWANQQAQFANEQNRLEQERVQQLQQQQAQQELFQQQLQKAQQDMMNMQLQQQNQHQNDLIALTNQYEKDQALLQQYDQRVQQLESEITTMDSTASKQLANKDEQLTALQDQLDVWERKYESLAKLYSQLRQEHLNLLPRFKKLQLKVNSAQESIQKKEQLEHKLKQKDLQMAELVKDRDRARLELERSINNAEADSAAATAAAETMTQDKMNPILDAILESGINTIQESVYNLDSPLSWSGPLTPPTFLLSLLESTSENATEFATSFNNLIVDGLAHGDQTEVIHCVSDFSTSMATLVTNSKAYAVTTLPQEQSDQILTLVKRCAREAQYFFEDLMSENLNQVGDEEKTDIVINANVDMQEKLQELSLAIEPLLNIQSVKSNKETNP

Row | Molecule | ID/IS of Clathrin (green channel) with Sla2 IDR-CC-mScarlet droplets, 2.5% (w/v) PEG 8000 [1] | ID/IS of Sla2 IDR-CC-mScarlet (magenta channel) in the presence of Clathrin, 2.5% (w/v) PEG 8000 [1] | ID/IS of 20 µM Sla2 IDR-CC when mixed with 45 µM Ede1 IDR-CC (4.7 for Sla2 IDR-CC alone), 2.5% (w/v) PEG 8000 [2] | droplet-to-solution intensity ratio (ID/IS) of 5 µM Ede1 IDR-CC in condensates of 20 µM Sla2 IDR-CC, 2.5% (w/v) PEG 8000 [2]
1 | "Clathrin" construct: full-length CLC and CHC distal leg (residues 1172-1572) heterodimer conjugated to mNeonGreen (from UniProt P17891 1-233; P22137 1172-1572) (complex) | 3.6 | 6.9 | – | –
2 | Ede1 IDR-CC (residues 366-900) tagged with mEGFP (domain or fragment) GLYPPNPLPQQQSAPQIAIPSRASKPSLQDMPHQVSAPAVNTQPTVPQVLPQNSNNGSLNDLLALNPSFSSPSPTKAQTVVQNNTNNSFSYDNNNGQATLQQQQPQQPPPLTHSSSGLKKFTPTSNFGQSIIKEEPEEQEQLRESSDTFSAQPPPVPKHASSPVKRTASTTLPQVPNFSVFSMPAGAATSAATGAAVGAAVGAAALGASAFSRSSNNAFKNQDLFADGEASAQLSNATTEMANLSNQVNSLSKQASITNDKKSRATQELKRVTEMKNSIQIKLNNLRSTHDQNVKQTEQLEAQVLQVNKENETLAQQLAVSEANYHAAESKLNELTTDLQESQTKNAELKEQITNLNSMTASLQSQLNEKQQQVKQERSMVDVNSKQLELNQVTVANLQKEIDGLGEKISVYLTKQKELNDYQKTVEEQHAQLQAKYQDLSNKDTDLTDREKQLEERNRQIEEQENLYHQHVSKLQEMFDDLSQRKASFEKADQELKERNIEYANNVRELSERQMNLAMGQLPEDAKDIIAKSAS | – | – | 7.8 | 4
